Results as given in the supplement of paper PMC10126150.
± gives the standard deviation of the averaged measurements.

System: ATP
Assay: switch fluorescence ratio, 500 uM ATP over buffer (Cy3 cluster intensity, sum of 5 cycles each) (fold (ratio)); higher = stronger signal-on switching upon ATP binding; sequences stand for … in TCGTCGGCAGCGTCAGATGTGTATAAGAGACAGTTTTTTTTTTTTTTTTTTTTTTTTT…TC
Details: aptamer strand: ATP DNA aptamer (quencher-CACCTGGGGGAGTATTGCGGAGGAAGG + anchor), 100 nM annealed; ATP concentration: 500 uM
How it was run: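 Exposure to 500 uM ATP lasted 15 min at 22 °C before imaging, and a selection-buffer image was taken beforehand, for Cy3-labelled switching-strand clusters on a modified Illumina MiSeq flow-cell annealed to 100 nM quencher-labelled ATP aptamer. Five buffer/ATP cycles were run with NaOH stripping and re-annealing between them. The fluorescence ratio per cluster is summed target-cycle over summed buffer-cycle Cy3 intensity, averaged per switch-domain sequence. Clusters outside 100-1000 RFU were excluded.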

| Sequence | switch fluorescence ratio |
| --- | --- |
| TGATACTGCT | 0.961 ± 0.035 |
| TGATAGGTGG | 1 ± 0.028 |
| TGATATGTGG | 1.01 ± 0.038 |
| TGATATGTTT | 1.006 ± 0.002 |
| TGATATTCGA | 0.997 ± 0.012 |
| TGATATTTTG | 1 ± 0.016 |
| TGATCAAGTG | 0.99 ± 0.049 |
| TGATCGGATA | 1 ± 0.04 |
| TGATGATCC | 1.01 ± 0.042 |
| TGATGATGGG | 0.985 ± 0.038 |
| TGATGCAGTT | 1.01 ± 0.018 |
| TGATGCCGAA | 1.022 ± 0.0034 |
| TGATGCTGTA | 0.977 ± 0.063 |
| TGATGGACGG | 1 ± 0.022 |
| TGATGGAGGG | 0.997 ± 0.026 |
| TGATGGGAGC | 0.982 ± 0.014 |
| TGATGGGGG | 0.981 ± 0.016 |
| TGATGGGGTC | 0.991 ± 0.013 |
| TGATGTCTAG | 0.967 ± 0.021 |
| TGATGTTAGA | 1.003 ± 0.009 |
| TGATGTTTTT | 1.01 ± 0.024 |
| TGATTAATGA | 0.996 ± 0.034 |
| TGATTAATTT | 0.984 ± 0.011 |
| TGATTACTCA | 1.03 ± 0.021 |
| TGATTAGGGC | 1.01 ± 0.017 |
| TGATTATGGA | 0.995 ± 0.045 |

| Sequence | switch fluorescence ratio |
| --- | --- |
| TGATTATTTT | 0.991 ± 0.016 |
| TGATTCAGAG | 0.992 ± 0.029 |
| TGATTCATGA | 0.925 ± 0.033 |
| TGATTCATTG | 1.034 ± 0.01 |
| TGATTCCGGT | 0.992 ± 0.013 |
| TGATTCGGCG | 1.03 ± 0.069 |
| TGATTCGTAC | 1.03 ± 0.028 |
| TGATTCTCTT | 1 ± 0.027 |
| TGATTCTGTG | 1.02 ± 0.03 |
| TGATTGAGAG | 1.016 ± 0.0025 |
| TGATTGGGGT | 1.01 ± 0.024 |
| TGATTGGTGG | 1.01 ± 0.041 |
| TGATTGGTTC | 0.9788 ± 0.0029 |
| TGATTGTACT | 1 ± 0.02 |
| TGATTGTTAT | 1.029 ± 0.0016 |
| TGATTTCATT | 1.02 ± 0.048 |
| TGATTTGGTT | 0.9903 ± 0.0083 |
| TGATTTTCGG | 0.974 ± 0.032 |
| TGATTTTTTT | 1.01 ± 0.031 |
| TGCAAAAAAT | 1.02 ± 0.011 |
| TGCAAAGAGC | 0.9824 ± 0.0073 |
| TGCAACGTAT | 1.13 ± 0.19 |
| TGCAAGGGAG | 1.0133 ± 0.00021 |
| TGCAATAGGG | 1.35 ± 0.12 |
| TGCAATATAT | 1.14 ± 0.01 |
| TGCAATGTTG | 1.04 ± 0.047 |

| Sequence | switch fluorescence ratio |
| --- | --- |
| TGCACAATCG | 1.01 ± 0.1 |
| TGCACCGGGG | 1.02 ± 0.016 |
| TGCACGTTGC | 1.02 ± 0.03 |
| TGCAGAGGAA | 1.03 ± 0.018 |
| TGCAGCATCA | 1.11 ± 0.012 |
| TGCAGCTGGA | 0.977 ± 0.022 |
| TGCAGGAAAC | 1.05 ± 0.036 |
| TGCAGGAGGG | 0.972 ± 0.022 |
| TGCAGGATAT | 1.61 ± 0.57 |
| TGCAGGGACT | 1.005 ± 0.0081 |
| TGCAGGGATG | 0.986 ± 0.041 |
| TGCAGGGCGC | 1.04 ± 0.028 |
| TGCAGGGCGG | 0.9806 ± 0.0017 |
| TGCAGGGTGC | 1.04 ± 0.016 |
| TGCAGGTCTT | 1 ± 0.052 |
| TGCAGTAAGG | 0.97794 ± 0.00081 |
| TGCAGTAATA | 1.53 ± 0.13 |
| TGCATCATAA | 1.01 ± 0.024 |
| TGCATGTTGG | 0.9937 ± 0.0017 |
| TGCATTCATG | 0.996 ± 0.029 |
| TGCATTTAAT | 1.01 ± 0.027 |
| TGCATTTACT | 1.133 ± 0.0035 |
| TGCATTTGGA | 0.978 ± 0.015 |
| TGCATTTTTG | 1.06 ± 0.053 |
